{"source": "patent US10323078B2", "about": "“Isolated peptides and fragments thereof from fibrinogen for use as drugs, particularly in skin inflammatory diseases” (Universite Paris Descartes, priority 2015, dated 2019)", "molecules": {"B1": {"name": "MKRMVSWSFHKLKTMKHLLLLLLCVFLVKSQGVNDNEEGFFSARGHRPLDKKREEAPSLRPAPPPISGGGYRARPAKAAATQKKVERKAPDAGGCLHADPDLGVLC (protein)", "chain": "MKRMVSWSFHKLKTMKHLLLLLLCVFLVKSQGVNDNEEGFFSARGHRPLDKKREEAPSLRPAPPPISGGGRARPAKAAATQKKVERKAPDAGGCLHADPDLGVLCMKRMVSWSFHKLKTMKHLLLLLLCVFLVKSQGVNDNEEGFFSARGHRPLDKKREEAPSLRPAPPPISGGGYRARPAKAAATQKKVERKAPDAGGCLHADPDLGVLC", "modifications": "GST fusion; fragment Fg1", "notes": "fragment of Bß chain of human fibrinogen having 106 amino acids; recombinant GST-fused peptide expressed in E. coli"}}, "type_in_all_cases": "cell-based, human", "key": {"NHDK cells": {"system": "NHDK cells", "assay": "H2O2 production by keratinocytes stimulated by lipoteichoic acid (LTA)", "settings": "NHDK pre-treated 24 h with 1.75 to 7 μM, then LTA 10 μg/ml", "description": "FIG. 18: Dose-dependent inhibition of H2O2 production by keratinocyte pre-treated by small Fg1-generated peptides and stimulated by lipoteichoic acid (LTA). NHDK cell were incubated for 24 h with recombinant peptide Fg1 (light gray bar) and Fg2 (dark gray bar) at concentrations ranging from 1.75 to 7 μM. Measurement of hydrogen peroxide production was realized by spectrofluorometry as described in Materials and Methods. Controls experiments were done with unstimulated NHDK cell (white bar) and HDF stimulated with LTA at 10 μg/ml (black bar). Data are means±S.D. of three separate experiments. Statistical significance is indicated by * (P<0.05), ** (P<0.01), *** (P<0.001), and **** (P<0.0001), respectively. […]\nAll cells lines (5·10^4 to 10^5 cells/well) were seeded in 96-well plates (Corning Costar, Brumath, France) and treated as previously described. After stimulation, cells were washed three times in PBS and incubated with 100 μl per wells of 5 μM DHE (for determination of O2^●−) or 5 μM H2-DCFDA (for determination of H2O2) for 30 min as described previously and fluorescence intensity was recorded every hour over a period of 5 h. Fluorescence excitation/emission maxima were for DHE: 480/610 nm and for H2-DCFDA: 507/525 nm. At the end of the experiment, the number of adherent cells was evaluated by the crystal violet assay as described below. […]"}, "HaCaT cells": {"system": "HaCaT cells", "assay": "IL-8 production by P. acnes-stimulated HaCaT (ELISA)", "settings": "0.87 to 7 μM", "description": "(§1) For experiences of stimulation with P. acnes, cells were incubated with the P. acnes suspension adjusted at the appropriate concentration, pre-treated for 1 h at 37° C. or not with fibrinogen recombinant peptides Fg1 and Fg2 at the concentrations 0.87, 1.75, 3.5 or 7 μM for the desired period of time at 37° C. in 5% CO2.\n(§2) Human IL-1ß, IL-8, IL-12, hBD-2, and TNF-α protein concentration was measured in the supernatants of stimulated cells using various ELISA Set kits (Ready-Set-Go kit from eBioscience for acne experiments, and for psoriasis experiments the Duo set IL-8 kit from R&D Systems and the BD-2 Human Development (hBD-2) from Peprotech) according to the manufacturer's instructions. We used serial dilutions of recombinant human IL-1ß, IL-8, IL-12 and TNF-α for standard curve. The optical density was determined at 450 nm at a wavelength correction of 540 nm.\n(§3) To assess the efficacy of Fg1 recombinant peptide, the production of O2^∘− and H2O2 by HaCaT cells NHDK, THP-1, MRC5 and HDF stimulated by pretreated P. acnes strains 6919, RON and PIE was measured. The amount of ROS produced was compared to that produced by the stimulated cells with untreated bacteria. Production baseline was obtained by measuring ROS on unstimulated cells. The production of IL-1ß, IL-8, IL-12 and TNF-α was also measured in all conditions cited above. The measurement of the production of ROS is performed by spectrofluorimetry in the presence of specific fluorochromes directly on the monolayer cell. Measurement of cytokine production was performed in parallel on the cell culture supernatant.\nTwo sets of experiments were implemented: 1) The cells were stimulated (18 h at 37° C.) by P. acnes strains previously pretreated with Fg1 and Fg2 peptides at the final concentrations ranging from 0.87 to 7 μM for 1 h at 37° C.; and 2) The cells were pretreated first with Fg1 and Fg2 peptides at the final concentrations ranging from 0.87 to 7 μM for 24 h at 37° C. and stimulated (18 h at 37° C.) by P. acnes strains. […]\nImmortalized keratinocytes HaCaT cell were seeded in 96-well plates at 10^5 cells/well (Corning Costar, Brumath, France) and stimulated with P. acnes 6919 strain (O.D.620 nm=0.3) pretreated 1 h at 37° C. with the Fg1 and Fg1.1.1 peptides at the concentrations of 2.5, 5 and 10 μM for 18 h at 37° C. under 5% CO2. Then, culture supernatant was removed and the IL-8 concentration was measured by ELISA assay (eBioscience)."}, "MRC5 cells": {"system": "MRC5 cells", "assay": "IL-8 production by P. acnes-stimulated MRC5 (ELISA)", "settings": "0.87 to 7 μM", "description": "FIG. 15: Dose-dependent inhibition of IL-8 production by fibroblast stimulated by P. acnes pre-treated by recombinant peptide. MRC5 cells were incubated for 18 h with P. acnes RON strain at a concentration adjusted to 0.2 of absorbance at 600 nm (blue bar) and with P. acnes pretreated with recombinant peptide Fg1 (light gray bar) and Fg2 (dark gray bar). IL-8 concentration was measured by ELISA as described in Materials and Methods. Control experiment was done on unstimulated HaCaT cell (red bar). Data are means±S.D. of three separate experiments. Statistical significance is indicated by * (P<0.05), ** (P<0.01), *** (P<0.001), and **** (P<0.0001), respectively.\nas §1, §2, §3\nTwo sets of experiments were implemented: 1) The cells were stimulated (18 h at 37° C.) by P. acnes strains previously pretreated with Fg1 and Fg2 peptides at the final concentrations ranging from 0.87 to 7 μM for 1 h at 37° C.; and 2) The cells were pretreated first with Fg1 and Fg2 peptides at the final concentrations ranging from 0.87 to 7 μM for 24 h at 37° C. and stimulated (18 h at 37° C.) by P. acnes strains."}, "[1]": {"settings": "P. acnes 6919, set I, bacteria first pretreated"}, "[2]": {"settings": "P. acnes 6919, set II, cells first pretreated"}, "[3]": {"settings": "P. acnes PIE, set I, bacteria first pretreated"}, "[4]": {"settings": "P. acnes PIE, set II, cells first pretreated"}, "[5]": {"settings": "P. acnes RON, set I, bacteria first pretreated"}, "[6]": {"settings": "P. acnes RON, set II, cells first pretreated"}}, "data": [{"molecule": "B1", "values": [{"measurement": "Decrease of H2O2 production by LTA-stimulated cells", "setting": "NHDK cells", "result": "significantly decreases production of H2O2"}, {"measurement": "Inhibition of Interleukine 8 (IL-8) production", "setting": "HaCaT cells; [1]", "result": "pos"}, {"measurement": "Inhibition of Interleukine 8 (IL-8) production", "setting": "HaCaT cells; [2]", "result": "pos"}, {"measurement": "Inhibition of Interleukine 8 (IL-8) production", "setting": "HaCaT cells; [3]", "result": "pos"}, {"measurement": "Inhibition of Interleukine 8 (IL-8) production", "setting": "HaCaT cells; [4]", "result": "pos"}, {"measurement": "Inhibition of Interleukine 8 (IL-8) production", "setting": "HaCaT cells; [5]", "result": "pos"}, {"measurement": "Inhibition of Interleukine 8 (IL-8) production", "setting": "HaCaT cells; [6]", "result": "pos"}, {"measurement": "Inhibition of Interleukine 8 (IL-8) production", "setting": "MRC5 cells; [1]", "result": "pos"}, {"measurement": "Inhibition of Interleukine 8 (IL-8) production", "setting": "MRC5 cells; [2]", "result": "pos"}, {"measurement": "Inhibition of Interleukine 8 (IL-8) production", "setting": "MRC5 cells; [3]", "result": "pos"}, {"measurement": "Inhibition of Interleukine 8 (IL-8) production", "setting": "MRC5 cells; [4]", "result": "pos"}, {"measurement": "Inhibition of Interleukine 8 (IL-8) production", "setting": "MRC5 cells; [5]", "result": "pos"}, {"measurement": "Inhibition of Interleukine 8 (IL-8) production", "setting": "MRC5 cells; [6]", "result": "pos"}]}]}
